Assay results: patent US20250333523A1 (Alector, published 2025)

What was measured:
[1] = target: T1, Avi/His-HuIL18BPa (recombinant human IL-18BP isoform A with Avi and poly-His tags) (human, biotinylated with BirA on the Avi tag in some assays); assay: ELISA, coated IL-18BP
T1 construct: also called human IL-18BP-Avi-His
T1 chain: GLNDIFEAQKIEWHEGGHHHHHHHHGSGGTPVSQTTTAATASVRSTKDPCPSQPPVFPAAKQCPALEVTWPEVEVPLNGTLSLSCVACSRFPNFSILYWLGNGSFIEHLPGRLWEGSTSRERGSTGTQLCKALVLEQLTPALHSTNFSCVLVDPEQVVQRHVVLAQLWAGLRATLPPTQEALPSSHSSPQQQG

[2] = target: T2, Avi/HisMsIL18BPd (recombinant mouse IL-18BP with Avi and poly-His tags) (mouse, biotinylated with BirA on the Avi tag in some assays); assay: ELISA, coated IL-18BP
T2 construct: also called murine IL-18BP; IL-18BP-Avi-His (mouse)
T2 chain: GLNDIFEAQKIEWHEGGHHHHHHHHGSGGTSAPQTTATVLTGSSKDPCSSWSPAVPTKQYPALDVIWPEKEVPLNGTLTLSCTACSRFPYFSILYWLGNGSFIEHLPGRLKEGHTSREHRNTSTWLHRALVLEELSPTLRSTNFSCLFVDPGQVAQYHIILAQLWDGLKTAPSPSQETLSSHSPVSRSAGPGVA

[3] = target: T3, His/Avi-CynoIL18BP (recombinant cynomolgus IL-18BP with His and Avi tags) (cynomolgus monkey); assay: ELISA, coated IL-18BP
T3 construct: also called cynomolgus IL-18BP-Avi-His
T3 chain: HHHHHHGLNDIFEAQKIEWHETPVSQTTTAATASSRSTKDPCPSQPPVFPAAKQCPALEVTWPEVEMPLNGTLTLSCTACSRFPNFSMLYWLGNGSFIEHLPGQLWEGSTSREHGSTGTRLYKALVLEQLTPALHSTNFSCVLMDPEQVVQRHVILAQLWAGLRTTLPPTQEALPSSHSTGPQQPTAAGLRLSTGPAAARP

[4] = target: T1, Avi/His-HuIL18BPa (recombinant human …); assay: cell-based or functional assay
[5] = target: T2, Avi/HisMsIL18BPd (recombinant mouse …); assay: cell-based or functional assay
[6] = target: T1, Avi/His-HuIL18BPa (recombinant human …); assay: SPR Carterra LSA, IgG immobilized
[7] = target: T1, Avi/His-HuIL18BPa (recombinant human …); assay: blocking ELISA, competitor human IL-18
[8] = target: T4, mouse IL-18BPd-human IgG Fc (R&D Systems, Cat. #122-BP-100) (mouse; human, UniProt Q9Z0M9 29-193); assay: blocking ELISA, competitor mouse IL-18
T4 construct: Bought; also called mouse IL-18BPd-Fc Chimera
T4 sequence (looked up): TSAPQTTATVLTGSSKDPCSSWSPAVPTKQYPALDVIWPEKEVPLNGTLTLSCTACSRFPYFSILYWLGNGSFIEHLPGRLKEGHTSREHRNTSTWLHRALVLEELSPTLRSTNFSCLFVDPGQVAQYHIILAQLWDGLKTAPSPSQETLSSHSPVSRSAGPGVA

[9] = target: T3, His/Avi-CynoIL18BP (recombinant …); assay: blocking ELISA, competitor rhesus IL-18
[10] = target: T3, His/Avi-CynoIL18BP (recombinant …); assay: cell-based or functional assay
[11] = target: T3, His/Avi-CynoIL18BP (recombinant …); assay: SPR Carterra LSA, IgG immobilized

B1: anti-IL18BP antibody BP-07 (antibody, human IgG1, V domains shown)
VH: EVQLQQSGPELVKPGASVKISCRASGFTITDYNMDWVRQSHGKSLEWIGNINLNNGGSIYNQKFKGKATLTIDKSSSTAYMELRSLTSEDTAVYYCARSDTTVVASRYYAMDYWGQGTSVTVSS
VL: DIVLTQSPASLAMSLGKRATISCRASESVSIIGTNLIHWYQQKPGQPPKLLIYHASNLETGVPVRFSGSGSRTDFTLTIDPVEEDDVAIYYCLQSRKIPPTFGGGTKLEIK
[1]
  ELISA binding ratio (fold-change over background): 38.5 fold over background
[2]
  ELISA binding ratio (fold-change over background): 39.3 fold over background
[3]
  ELISA binding ratio (fold-change over background): 31.1 fold over background
[4]
  EC50 of IFNγ release, human PBMC: 1.66 nM
  Fold change of IFNγ at 10 µg/ml vs baseline, human PBMC: 16.6 fold
[5]
  EC50 of IFNγ release, mouse splenocytes: 8.16 nM
  Fold change of IFNγ at 10 µg/ml vs baseline, mouse splenocytes: 2.78 fold
[6]
  Kd: 2.7 nM
[7]
  blocking ELISA signal normalized to isotype control (=1): 0.147 ratio to isotype control
[8]
  blocking ELISA signal normalized to isotype control (=1): 0.156 ratio to isotype control
[9]
  blocking ELISA signal normalized to isotype control (=1): 0.999 ratio to isotype control

B2: anti-IL18BP antibody BP-01 (antibody, human IgG1, V domains shown)
VH: QVQLQQSGPEVVRPGVSVKISCKGSGYTFTDFAMYWVKQSHAKSLEWIGVISTDNGDTSYNQKFKGKATMTVDKSSSTAYMELDRLTSEDSAIYYCARSRGPFDYWGQGTALTVSS
VL: DIVMTQSHKFKSTSVGDRVNITCKASQDVGTAVAWYQQKPGQSPKLLIYWASTRHIGVPDRFTGSGSGTDFTLTIRNVQSEDLADYFCQRYSSYPWTFGGGTKLEIK
[1]
  ELISA binding ratio (fold-change over background): 40.7 fold over background
[2]
  ELISA binding ratio (fold-change over background): 36.7 fold over background
[3]
  ELISA binding ratio (fold-change over background): 47.4 fold over background
[4]
  EC50 of IFNγ release, human PBMC: 0.75 nM
  Fold change of IFNγ at 10 µg/ml vs baseline, human PBMC: 14.9 fold
[5]
  EC50 of IFNγ release, mouse splenocytes: 8.36 nM
  Fold change of IFNγ at 10 µg/ml vs baseline, mouse splenocytes: 1.65 fold
[10]
  % of Max Gamma, human NK cells: 52.2%
  EC50 of IFNγ release, human NK cells: 12.5 nM
[11]
  Kd: 12.1 nM
[7]
  blocking ELISA signal normalized to isotype control (=1): 0.076 ratio to isotype control
[8]
  blocking ELISA signal normalized to isotype control (=1): 0.316 ratio to isotype control
[9]
  blocking ELISA signal normalized to isotype control (=1): 0.795 ratio to isotype control

B3: anti-IL18BP antibody BP-09 (antibody, human IgG1, V domains shown)
VH: QVQLQQSGAELVRPGASVTLSCKASGYRFTDYAMHWVKQTPVHGLQWIGIIDPETGDTAFNQKFKGKATLTADKSSSTAYMELSSLTSEDSAVYYCTRPRGAMDYWGQGTSVTVSS
VL: DIVMTQSHKFMSTSGGDRVSITCKASQDVGTAVAWYQQKPGISPKLLIYWASTRHTGVPDRFTGSGSGTDFTLAISNVQSEDLADYFCQQYSSHPYTFGGGTKLEIK
[1]
  ELISA binding ratio (fold-change over background): 44.4 fold over background
[2]
  ELISA binding ratio (fold-change over background): 32.7 fold over background
[3]
  ELISA binding ratio (fold-change over background): 44.9 fold over background
[4]
  EC50 of IFNγ release, human PBMC: 1.41 nM
  Fold change of IFNγ at 10 µg/ml vs baseline, human PBMC: 15.4 fold
[5]
  EC50 of IFNγ release, mouse splenocytes: 426 nM
  Fold change of IFNγ at 10 µg/ml vs baseline, mouse splenocytes: 2.88 fold
[10]
  % of Max Gamma, human NK cells: 46.6%
  EC50 of IFNγ release, human NK cells: 51.7 nM
[6]
  Kd: 2.01 nM
[11]
  Kd: 1.4 nM
[9]
  blocking ELISA signal normalized to isotype control (=1): 0.315 ratio to isotype control
